US20240299576A1, “TARGETING […] MOLECULES AND USES THEREOF” (priority 2021, published 2024)
Read-outs that look alike come from different tables or passages of the source.

How the values were obtained:
PC3-hPDL1-hTROP2 cells = assay: cells; format: cell-based, human; conditions: 5 days exposure, read-out: PC3-hPDL1-hTROP2 cell IC50
Experimental: (§1) The in vitro anti-tumor activity was determined by CellTiter-Glo® Luminescent Cell Viability Assay (Promega) according to the manufacturer's instructions. […] Untreated cells served as control. ADCs, antibodies, or payloads in 100 μL medium were added in duplicate at various concentrations with a 2-fold dilution series starting with concentrations of 1 uM, respectively. Cells were exposed to test articles for 5 days. Absorbance was measured at 450 nm by a microplate reader. The cell survival rate (%) was calculated using the following formula: sample/control×100%.

[1] = Stability of SN-38 (lactone / lactone ring opening vs pH); format: physicochemical
Experimental: A hydrochloric acid solution with a pH of 4 and a sodium hydroxide solution with a pH of 10 were prepared respectively. 5 mg of SN-38 was dissolved in 5 mL of acetonitrile. The stability of SN-38 in a solution of changing pH (pH=10 to pH=4) was measured by shaking SN-38 at room temperature under pH=10 for 10 min, then adjusting the pH back to 4 and shake at room temperature for 10 min before sampling. SN-38 was then incubated at room temperature overnight (16 h) on a shaker and assayed afterwards.

HCT15-hPDL1 cells = assay: cells; format: cell-based, human; conditions: 5 days exposure, read-out: HCT15-hPDL1 cell IC50
Experimental: The cell line was named as HCT15-hPDL1.
as §1

HCT15-hPDL1-hTROP2 cells = assay: In vitro cytotoxicity, HCT15-hPDL1-hTROP2 cells; format: cell-based, human
Experimental: The cell line was named as HCT15-hPDL1-hTROP2.
as §1

CathepsinB = CathepsinB (Homo sapiens, UniProt P07858); assay: Digestion of the drug-linkers by CathepsinB; conditions: 125 nM enzyme, 62.5 μM drug-linker, pH 5.5, 37° C., 3 hours
Experimental: To simulate the release of drug under physiological conditions, the drug-linkers were subjected to cleavage by CathepsinB, after which an elimination reaction occurred and unmodified drug was released.
Lyophilized CathepsinB enzyme powder was dissolved in 130 μL of pure water, and divided into 13 tubes of 10 μL each. […] Activation buffer (20 mM sodium acetate, 30 mM DTT, 15 mM EDTA, pH 5.5) was then added to a tube of enzyme to activate the enzyme for 1 hour at room temperature.

[2] = tested on: T1, uPA substrate peptide SEQ ID NO: 53
T1 sequence: LGGSGRNAQVRLE

[3] = tested on: T2, uPA substrate peptide SEQ ID NO: 54
T2 sequence: GSGRNAQV

[4] = tested on: T3, uPA substrate peptide SEQ ID NO: 52
T3 sequence: LGGSGRSANAILE

[5] = tested on: T4, uPA substrate peptide SEQ ID NO: 50
T4 sequence: LSGRSDNH

[6] = tested on: T5, uPA substrate peptide SEQ ID NO: 51
T5 sequence: SGRSA

[7] = alkaline conditions 10 minutes, then acidic conditions (pH 10→4) before testing
[8] = pH 10→4, after incubation overnight (16 h)

Chain of Tissue-type Plasminogen Activator (tPA) (P00750 36-562): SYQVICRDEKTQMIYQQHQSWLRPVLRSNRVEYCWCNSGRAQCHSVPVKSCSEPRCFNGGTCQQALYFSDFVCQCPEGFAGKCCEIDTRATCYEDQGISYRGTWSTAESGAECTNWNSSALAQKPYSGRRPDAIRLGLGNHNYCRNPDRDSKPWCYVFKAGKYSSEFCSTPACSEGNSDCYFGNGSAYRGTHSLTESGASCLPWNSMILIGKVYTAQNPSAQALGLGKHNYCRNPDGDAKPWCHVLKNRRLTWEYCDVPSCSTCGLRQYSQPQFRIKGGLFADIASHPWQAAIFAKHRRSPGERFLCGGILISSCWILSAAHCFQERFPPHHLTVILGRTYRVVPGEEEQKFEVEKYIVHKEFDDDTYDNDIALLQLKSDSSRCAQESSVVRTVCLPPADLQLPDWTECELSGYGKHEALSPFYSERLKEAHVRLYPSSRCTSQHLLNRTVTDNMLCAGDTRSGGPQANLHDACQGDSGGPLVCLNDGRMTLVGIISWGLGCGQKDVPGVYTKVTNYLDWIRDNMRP

CCc1c2c(nc3ccc(O)cc13)-c1cc3c(c(=O)n1C2)COC(=O)[C@]3(O)CC [SN38, 7-ethyl-10-hydroxy-20(S)-camptothecin] showed an IC50 (PC3-hPDL1-hTROP2 cells; Homo sapiens, 120 h) of 8.69 nM, an existing as lactone ([1]; acidic conditions (pH 4)) of 94% and a lactone ring-opening products [1, 7] of 42%. For the same compound, the “present in the form of lactone” value [1, 7] was 56%, the lactone ring-opened form ([1]; alkaline conditions (pH 10)) was 92% and the “in the form of lactone” value [1, 8] was 86%. The lactone ring-opening products [1, 8] was 13%, the IC50 (HCT15-hPDL1 cells; Homo sapiens, 120 h) was 11.2 nM and the “Maximum Inhibitory Rate” value (HCT15-hPDL1-hTROP2 cells; HCT15-hPDL1-hTROP2 cells) was >99.9%. The IC50 (HCT15-hPDL1-hTROP2 cells; Homo sapiens, 120 h, 5 days exposure, read-out: HCT15-hPDL1-hTROP2 cell IC50) was 9.57 nM.
In the case of “Glycine3-amido-PEG8-VC-PAB-DMAE-phenol linked SN38 [Compound of Formula (1)]”, the IC50 (PC3-hPDL1-hTROP2 cells) is reported as > 250 nM and the “Product released on CathepsinB digestion” value (CathepsinB) is reported as “SN38”.
For “Glycine3-amido-PEG8-VC-PAB-DMAE-α-hydroxy lactone linked SN38 [Compound of Formula (2)]”, the IC50 (PC3-hPDL1-hTROP2 cells) was 53.1 nM, the IC50 (HCT15-hPDL1 cells) was 38.1 nM and the “CathepsinB digestion” value (CathepsinB) was “effectively digested”. The “Product released on CathepsinB digestion” value (CathepsinB) was “SN38 derivatives”.
Work on Tissue-type Plasminogen Activator (tPA) yielded a Fluorescence Intensity, Fold of Increase, tPA digestion at 2.25 × 10^-2 mg/mL (FRET) [2] of 1.3 fold, a Fluorescence Intensity, Fold of Increase, tPA digestion at 7.5 × 10^-3 mg/mL (FRET) [2] of 0.73 fold and a Fluorescence Intensity, Fold of Increase, tPA digestion at 2.25 × 10^-2 mg/mL (FRET) [3] of 2.6 fold. For the same compound, the Fluorescence Intensity, Fold of Increase, tPA digestion at 7.5 × 10^-3 mg/mL (FRET) [3] was 0.91 fold, the Fluorescence Intensity, Fold of Increase, tPA digestion at 2.25 × 10^-2 mg/mL (FRET) [4] was 2.1 fold and the Fluorescence Intensity, Fold of Increase, tPA digestion at 7.5 × 10^-3 mg/mL (FRET) [4] was 1.2 fold. It also gave a Fluorescence Intensity, Fold of Increase, tPA digestion at 2.25 × 10^-2 mg/mL (FRET) [5] of 1.1 fold, a Fluorescence Intensity, Fold of Increase, tPA digestion at 7.5 × 10^-3 mg/mL (FRET) [5] of 0.63 fold and a Fluorescence Intensity, Fold of Increase, tPA digestion at 2.25 × 10^-2 mg/mL (FRET) [6] of 5.4 fold. For the same compound, the Fluorescence Intensity, Fold of Increase, tPA digestion at 7.5 × 10^-3 mg/mL (FRET) [6] was 2.1 fold.
For “Urokinase-type Plasminogen Activator (uPA)”, the Fluorescence Intensity, Fold of Increase, uPA cleavage (FRET) [2] was 3 fold, the Fluorescence Intensity, Time to Reach Plateau (h), uPA cleavage (FRET) [2] was 1.6 h and the Fluorescence Intensity, Fold of Increase, uPA cleavage (FRET) [3] was 4.7 fold. The Fluorescence Intensity, Time to Reach Plateau (h), uPA cleavage (FRET) [3] was 1.4 h, the Fluorescence Intensity, Fold of Increase, uPA cleavage (FRET) [4] was 3.1 fold and the Fluorescence Intensity, Time to Reach Plateau (h), uPA cleavage (FRET) [4] was 1.4 h. For the same compound, the Fluorescence Intensity, Fold of Increase, uPA cleavage (FRET) [5] was 4.9 fold, the Fluorescence Intensity, Time to Reach Plateau (h), uPA cleavage (FRET) [5] was 1.7 h and the Fluorescence Intensity, Fold of Increase, uPA cleavage (FRET) [6] was 9.6 fold. The Fluorescence Intensity, Time to Reach Plateau (h), uPA cleavage (FRET) [6] was 1.8 h.
